Assay [1] relates to Ewing sarcoma cell line (SKNMC). Nature of the assay: Synthetic lethality hit validation dose response curves. Format: cell-based. Conditions: Homo sapiens, SK-N-MC. The procedure: For synthetic lethality hit validation, fresh stocks of the […] drugs selected as hits were obtained (pictilisib, SYNkinase and PF-04691502, Cayman Chemical). The interaction of the selected drugs and IGF2-TRAP were evaluated by Q-value calculated by the formula Q=FD+T/FD+(1−FD)FT, where FD+T represents the fraction affected by treatment with the drug plus IGF2-TRAP compared with the untreated control group, FD represents the fraction affected by the drug alone, and FT represents the fraction affected by the IGF2-TRAP alone. A value of Q>1.15 indicates a synergistic effect, Q<0.85 indicates an antagonistic effect, and Q between 0.85 and 1.15 indicates an additive effect.

Assay [2] addresses T1, IGF2 (Homo sapiens, UniProt P01344). Description: SPR (Biacore T200) of recombinant IGF2R domain 11 mutants on immobilised biotinylated IGF2. The arrangement: purchased GroPep. Format: binding. In short, it runs like this:
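Biotinylated IGF2 (or IGF1) captured on streptavidin chip; domain 11 mutants (E. coli or P. pastoris, AB5 background) injected at 25 °C, 40 μL/min, in HBS-EP pH 7.4 or MES-EP pH 6.5. kon/koff from 1:1 fit; KD as mean of 2-5 repeats.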
(In general: In SPR one partner is held on a chip, and binding of the other changes the refractive index at the surface.)

Assay [3] addresses T1, IGF2. The note with it: background, literature references; cited from earlier work.
Setting [4] is: in the presence of Fc-domain 11^AB5-RHH (IGF2-TRAP).

Where a chain is given by its changes, count along the chain named. Names may count otherwise.

Here are results for 4 molecules from patent US10494415B2, “Insulin-like growth factor 2 (IGF2) binding agents” (Cancer Research Technology Limited, priority 2015, dated 2019).

T1 sequence (P01344 25-91): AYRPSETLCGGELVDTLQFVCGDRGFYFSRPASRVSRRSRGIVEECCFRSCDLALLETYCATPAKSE

The term IC50 denotes the point on the concentration scale where inhibition reaches its midpoint. For the molecule `COc1ccc(-c2cc3c(C)nc(N)nc3n([C@H]3CC[C@H](OCCO)CC3)c2=O)cn1` [PF-04691502, 2-amino-8-[trans-4-(2-hydroxyethoxy)cyclohexyl]-6-(6-methoxypyridin-3-yl)-4-methylpyrido-[2,3-d]pyrimidin-7(8H)-one], the IC50 in assay [1] (drug alone) was 420 nM; in assay [1] (setting [4]) it was 92 nM.

For `CS(=O)(=O)N1CCN(Cc2cc3nc(-c4cccc5[nH]ncc45)nc(N4CCOCC4)c3s2)CC1` [Pictilisib, 4-[2-(1H-indazol-4-yl)-6-[(4-methylsulfonylpiperazin-1-yl)methyl]thieno[3,2-d]pyrimidin-4-yl]morpholine], the IC50 in assay [1] (drug alone) came to 1100 nM; in assay [1] (setting [4]) it was 140 nM.

B1: AB3: IGF2R domain 11 with AB loop mutations E1544K, K1545S, L1547V (YSKSGV) (protein)
chain: MKSNEHDDCQVTNPSTGHLFDLSSLSGRAGFTAAYSKSGVVYMSICGENENCPPGVGACFGQTRISVGKANKRLRYVDQVLQLVYKDGSPCPSKSGLSYKSVISFVCRPEAGPTNRPMLISLDKQTCTLFFSWHTPLACEQATECSV
What is called Kd is the constant that tells how readily two partners part at equilibrium. In the case of B1, the Kinetics koff with IGF2 [2] (Table 1, 25° C., HBS-EP pH 7.4) was 0.044 s⁻¹; with IGF2 [2] (Table 2), 0.044 s⁻¹; in the assay with IGF2 [2] (Table 3, 25° C., HBS-EP pH 7.4), 0.044 s⁻¹; in the assay with IGF2 [2] (Table 4, MES-EP pH 6.5), 0.0381 s⁻¹. The Kinetics kon is 2.76e+06 M⁻¹ s⁻¹ in the assay with IGF2 [2] (Table 1, 25° C., HBS-EP pH 7.4); 2.76e+06 M⁻¹ s⁻¹ with IGF2 [2] (Table 2); 2.76e+06 M⁻¹ s⁻¹ with IGF2 [2] (Table 3, 25° C., HBS-EP pH 7.4); 3.43e+06 M⁻¹ s⁻¹ in the assay with IGF2 [2] (Table 4, MES-EP pH 6.5). Besides, the Kd in the assay with IGF2 [3] is 15 nM.

B2: WT: wild-type human IGF2R domain 11 (residues 1511-1650), AB loop YSEKGL (protein)
chain: B1 chain with K37E, S38K, V40L
As to B2, the Kinetics koff with IGF2 [2] (Table 1, 25° C., HBS-EP pH 7.4) was determined as 0.23 s⁻¹; with IGF2 [2] (Table 2) it was 0.23 s⁻¹; in the assay with IGF2 [2] (Table 4, MES-EP pH 6.5), 0.1441 s⁻¹. Further, the Kinetics kon with IGF2 [2] (Table 1, 25° C., HBS-EP pH 7.4) came out at 5e+06 M⁻¹ s⁻¹; with IGF2 [2] (Table 2), 5e+06 M⁻¹ s⁻¹; in the assay with IGF2 [2] (Table 4, MES-EP pH 6.5) it was 2.68e+06 M⁻¹ s⁻¹. Besides, the “ΔH of IGF2 interaction” value with IGF2 [2] (van't Hoff, 10° C. to 30° C.) is < 0. Also, the “−TΔS of IGF2 interaction” value in the assay with IGF2 [2] (van't Hoff, 10° C. to 30° C.) was > 0. The Kd in the assay with IGF2 [3] is 40 to 60 nM.
